{"source": "patent US20150098900A1", "about": "(Genentech, published 2015)", "key": {"[1]": {"target": "T1, human FcRH5c (full length human FcRH5) (human, UniProt Q96RD9 16-977)", "T1 construct": "Used on transfected SVT2, 293, EJM and OPM2 cells and endogenously on MOLP-2 cells and CD19+ B cells; also called IRTA2c; huFcRH5", "T1 sequence": "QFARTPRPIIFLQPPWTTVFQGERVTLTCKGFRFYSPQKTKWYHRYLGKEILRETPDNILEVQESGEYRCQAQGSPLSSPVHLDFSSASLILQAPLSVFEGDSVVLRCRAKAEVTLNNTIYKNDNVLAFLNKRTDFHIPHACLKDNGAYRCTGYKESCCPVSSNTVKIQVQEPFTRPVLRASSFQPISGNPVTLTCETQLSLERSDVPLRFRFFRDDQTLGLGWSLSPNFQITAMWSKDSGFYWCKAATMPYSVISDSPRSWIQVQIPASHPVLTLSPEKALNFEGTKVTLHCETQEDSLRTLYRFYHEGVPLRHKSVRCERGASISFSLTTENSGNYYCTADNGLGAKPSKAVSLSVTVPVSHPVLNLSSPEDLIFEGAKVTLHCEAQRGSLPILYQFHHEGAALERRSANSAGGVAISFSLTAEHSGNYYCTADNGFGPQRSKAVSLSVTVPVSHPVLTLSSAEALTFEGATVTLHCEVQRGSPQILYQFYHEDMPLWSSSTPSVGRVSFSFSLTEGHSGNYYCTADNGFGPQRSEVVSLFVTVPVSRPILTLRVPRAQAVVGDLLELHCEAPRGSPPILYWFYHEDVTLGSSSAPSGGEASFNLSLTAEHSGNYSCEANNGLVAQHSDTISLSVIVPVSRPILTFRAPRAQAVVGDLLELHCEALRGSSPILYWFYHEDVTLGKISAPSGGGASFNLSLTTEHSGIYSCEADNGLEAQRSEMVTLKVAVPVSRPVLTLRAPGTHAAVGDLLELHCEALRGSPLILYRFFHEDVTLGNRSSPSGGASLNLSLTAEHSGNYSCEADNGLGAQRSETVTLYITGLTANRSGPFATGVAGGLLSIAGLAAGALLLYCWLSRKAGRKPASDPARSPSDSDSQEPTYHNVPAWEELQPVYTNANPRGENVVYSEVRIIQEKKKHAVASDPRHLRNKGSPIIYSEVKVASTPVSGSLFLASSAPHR", "experiment": "FACS, EJM cells transfected with human FcRH5, anti-mouse Alexa-647; negative control"}, "[2]": {"target": "T1, human FcRH5c (full length human FcRH5)", "experiment": "FACS, OPM2 cells transfected with human FcRH5, anti-mouse Alexa-647; negative control"}, "[3]": {"target": "T1, human FcRH5c (full length human FcRH5)", "experiment": "FACS, MOLP2 cells (endogenous FcRH5), 4 ug/ml; legend printed under FIG. 3E", "method": "(§1) To test binding to endogenously FcRH5 expressing cancer cells or FcRH5 transfected cancer cells, cells were lifted using EDTA/PBS. 1×10⁵ cells were suspended in 100 ul and incubated […] with primary antibodies (1 volume of non-IgG quantitated subclone supernatant, 4 ug/ml IgG quantified subclone supernatant or […] purified monoclonal antibodies). Cells were washed twice with FACS buffer (PBS 1% BSA 2 mM EDTA) and incubated with 1:1000 dilution of goat anti-mouse secondary labeled with PE or 1:100 of goat anti-mouse APC. Cells were washed twice with FACS buffer and Flow cytometry analysis was done on a FACSCalibur. Direct […] of antibodies was done according to manufacturer's protocol (Invitrogen), when indicated. To analyze binding to NK or B cells, 1 million human PBMC were incubated with 4 ug/ml IgG quantified subclone supernatants for 60 min, washed and incubated with 1:100 dilution of goat anti-mouse secondary labeled with APC. Cells were then washed again twice and stained using anti-CD56 (PE; BD Biosciences #555516) and anti-CD19 (PE; BD Biosciences #340364) prior flow cytometry and analysis of binding to human CD56+ and CD19+ cells."}, "[4]": {"target": "T1, human FcRH5c (full length human FcRH5)", "experiment": "FACS, MOLP2 cells (endogenous FcRH5), 4 ug/ml", "method": "as §1"}, "[5]": {"target": "T1, human FcRH5c (full length human FcRH5)", "experiment": "FACS, 293 cells with wild type FcRH5c, supernatants 2.5 ug/ml, anti-mouse PE", "method": "Two separate tests were designed to address dependency of binding on the presence of membrane proximal Ig-domain 9 (E11). First a truncated human FcRH5c mutant was generated that lacks Ig-domains 6-9 (amino acids 464-850 of SEQ ID NO:1) including the expected binding site for the antibodies derived from E11 immunization. This construct with N-terminal gD-tag was expressed in 293 cells and subjected to 2.5 ug/ml subclone supernatants followed by PE labeled goat anti-mouse secondary antibody (1:1000 dilution). None of the tested subclones bound to 293 cells that express the truncated human FcRH5c (FIG. 4A). In contrast binding was detected to 293 cells that express wild type human FcRH5c. Binding of gD or non-isoform selective antibody clone (10A8) was not altered by the mutation."}, "[6]": {"target": "T2, soluble FcRH5a isoform with C-terminal HIS-expression tag (human, UniProt Q96RD9-3 16-759)", "T2 construct": "mature; also called IRTA2a", "T2 sequence (looked up)": "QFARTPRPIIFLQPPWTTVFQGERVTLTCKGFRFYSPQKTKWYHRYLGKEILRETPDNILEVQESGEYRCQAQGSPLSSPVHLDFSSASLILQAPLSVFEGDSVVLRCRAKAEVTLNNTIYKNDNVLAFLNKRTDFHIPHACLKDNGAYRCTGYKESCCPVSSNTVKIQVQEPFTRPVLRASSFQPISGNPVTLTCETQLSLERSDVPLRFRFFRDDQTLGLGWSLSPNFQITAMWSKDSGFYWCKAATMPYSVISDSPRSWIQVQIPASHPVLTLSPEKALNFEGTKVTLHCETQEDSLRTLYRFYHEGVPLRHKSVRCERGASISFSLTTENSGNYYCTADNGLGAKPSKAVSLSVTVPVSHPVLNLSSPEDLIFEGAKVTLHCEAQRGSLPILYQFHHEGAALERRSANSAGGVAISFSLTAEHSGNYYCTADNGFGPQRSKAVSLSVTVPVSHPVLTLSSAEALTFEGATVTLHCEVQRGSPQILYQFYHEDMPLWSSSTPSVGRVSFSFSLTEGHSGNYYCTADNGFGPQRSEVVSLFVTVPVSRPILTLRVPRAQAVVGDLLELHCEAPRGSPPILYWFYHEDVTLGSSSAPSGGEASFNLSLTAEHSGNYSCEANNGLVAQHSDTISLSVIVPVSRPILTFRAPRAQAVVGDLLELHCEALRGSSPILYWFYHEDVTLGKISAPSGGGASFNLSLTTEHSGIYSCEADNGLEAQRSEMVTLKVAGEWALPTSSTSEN", "experiment": "ELISA, His-tagged soluble FcRH5a captured by anti-His, anti-mouse HRP, OD 650", "method": "For this, 293 cells were transfected to express the soluble isoform with C-terminal HIS-expression tag. Expression of FcRH5a protein was confirmed with Western blot analysis using anti-HIS antibody. A 65 kD band was detected in conditioned media from FcRH5a but not vector transfected cells (not shown). For the ELISA, plates were coated with anti-HIS capture antibody and incubated 1 hour with 1:10 diluted conditioned media including the HIS-tagged soluble FcRH5a isoform. The E11 monoclonal antibodies were used for detection in 1-0.001 ug/ml concentration, incubated for 1 hour followed by incubation with goat anti-mouse HRP antibody and finally with TMB-substrate."}}, "data": [{"molecule": "mIgG (antibody)", "values": [{"measurement": "Mean:FL4-H", "setting": "[1]", "value": 10.3}, {"measurement": "Mean:FL4-H", "setting": "[2]", "value": 6.43}]}, {"molecule": "5F1.1.5 (antibody, IgG2a, V domains shown, parent 5F1 and subclone 5F1.1 treated as the same antibody; also called 5F1.1.mIgG2a) VH: QVQLQQSGADLVRPGTSVKVSCKASGYAFTNYLIEWVKQRPGQGLEWIGVINPGSGGTNYNEKFKGKATLTADKSSSTAYMQLSSLTSDDSAVYFCARTRNYGYVIDYWGQGTTLTVSSASTKGPSVFPLAP VL: QAVVTQESALTTSPGETVTLTCRSSTGTVTTSNFANWVQEKPDHLFTGLIGGTSNRAPGVPARFSGSLIGDKAALTITGAQTEDEAIYFCVLWCSNLWVFGGGTKLTVLGQPKAA", "values": [{"measurement": "binding result", "setting": "[3]", "value": "binds"}]}, {"molecule": "3G7.1.5 (antibody, IgG2a, V domains shown, parent 3G7 and subclone 3G7.1 treated as the same antibody; also called 3G7.1.mIgG2a) VH: EVQLQQSGPELVKPGASVKMSCKASGYTFTDYYMKWVRQNHGKRLEWIGDINPYNGDTFYNQKFKDKATLTVDKSSSTAYMQFNSLTSEDSAVYYCARGLYFFHYWGQGTTLTVSSASTKGPSVFPLAP VL: DIVLIQSPATLSVTLGGSVSLSCRASQSISNNLHWYQQKSHESPRLLIKFASQSISGIPSRFRGSGSGTDFTLTINSVETEDFGIYFCQQSNNWPQYTFGGGTKLELKRTVAA", "values": [{"measurement": "binding result", "setting": "[4]", "value": "binds"}]}, {"molecule": "2H7.3 (antibody, IgG2b, V domains shown, Parent 2H7, subclone 2H7.3 and purified antibody treated as one; also called 2H7.3.mIgG2b) VH: EVQLQQSGPELWKPGASVKMSCKASGYTFTDYYMKWVKQTHGKSLEWIGDINPNNGETFYSQKFKGKATLTVDKSSTTAYMQLNSLTSEDSAVYYCARGLYRFDYWGQGTTLTVSSASTKGPSVFPLAP VL: EIVLTQSPATLSVTPGDSVSLSCRASQNIRNNLHWYQQKSHESPRLLIKFTSQSISGIPSRFTGSGSGTDFTLSINSVETEDFGMYFCQQSNNWPQYTFGGGTKLEIKRTVAA", "values": [{"measurement": "binding result", "setting": "[5]", "value": "binds"}, {"measurement": "binding result", "setting": "[6]", "value": "binds"}]}, {"molecule": "5A10.1.3 (antibody, IgG2b, V domains shown, parent 5A10 and subclone 5A10.1 treated as the same antibody; also called 5A10.1.mIgG2b) VH: EVQLQQSGPELWKPGASVKMSCKASGYTFTDYYMKWVKQSHGKSLEWIGDINPNNGETFYNQKFKGKATLTVDKSTSTAYMELNSLTTEDSAVYYCARGLYRFDYWGQGTTLTVSSAASTKGPSVFPLAP VL: DIVLTQSPANLSVIPGDSVSLSCRASQNIRNNLHWYQQKSQESPRLLIKFASQSMSGTPSRFTGSGSGTDFTLTINTVETEDFGMYFCQQSNNWPQYTFGGGTKLEIKRTVAA", "values": [{"measurement": "EC50 (read off the curve)", "setting": "[6]", "value": "~0.02", "unit": "ng/mL"}]}]}
